According to US20210115421 (published 2021):

Columns and labels:
LbCas12a-K595Y [1] = molecular target: T1, LbCas12a-K595Y (Lachnospiraceae bacterium ND2006, K595Y); assay: cleavage_in_vitro; PAM ACCC; NEB 2.1, 37C; wt TTTV benchmark 9.2
LbCas12a-D122H = LbCas12a-D122H (Lachnospiraceae bacterium ND2006, D122H); assay: cleavage_in_vitro; PAM TCCC; NEB 2.1, 37C
LbCas12a-D156Q [2] = molecular target: T2, LbCas12a-D156Q (Lachnospiraceae bacterium ND2006, D156Q); assay: cleavage_in_vitro; PAM CCTA; NEB 2.1, 37C
LbCas12a-K595Y [3] = molecular target: T1, LbCas12a-K595Y; assay: cleavage_in_vitro; PAM TTCG; NEB 2.1, 37C
LbCas12a-E159K [4] = molecular target: T3, LbCas12a-E159K (Lachnospiraceae bacterium ND2006, E159K); assay: cleavage_in_vitro; PAM CCCC; NEB 2.1, 37C
LbCas12a-K595W [5] = molecular target: T4, LbCas12a-K595W (Lachnospiraceae bacterium ND2006, K595W); assay: cleavage_in_vitro; PAM CCCC; NEB 2.1, 37C
LbCas12a-G532H [6] = molecular target: T5, LbCas12a-G532H (Lachnospiraceae bacterium ND2006, G532H); assay: cleavage_in_vitro; PAM TTCA; NEB 2.1, 37C
LbCas12a-K538W [7] = molecular target: T6, LbCas12a-K538W (Lachnospiraceae bacterium ND2006, K538W); assay: cleavage_in_vitro; PAM TATC; NEB 2.1, 37C
LbCas12a-K538W [8] = molecular target: T6, LbCas12a-K538W; assay: cleavage_in_vitro; PAM TATA; NEB 2.1, 37C
LbCas12a-D535N [9] = molecular target: T7, LbCas12a-D535N (Lachnospiraceae bacterium ND2006, D535N); assay: cleavage_in_vitro; PAM TTGC; NEB 2.1, 37C
LbCas12a-E159K [10] = molecular target: T3, LbCas12a-E159K; assay: cleavage_in_vitro; PAM TTCT; NEB 2.1, 37C
LbCas12a-K121R [11] = molecular target: T8, LbCas12a-K121R (Lachnospiraceae bacterium ND2006, K121R); assay: cleavage_in_vitro; PAM TTCT; NEB 2.1, 37C
LbCas12a-K595Y [12] = molecular target: T1, LbCas12a-K595Y; assay: cleavage_in_vitro; PAM GCGC; NEB 2.1, 37C
LbCas12a-K595W [13] = molecular target: T4, LbCas12a-K595W; assay: cleavage_in_vitro; PAM ACGG; NEB 2.1, 37C
LbCas12a-T152R [14] = molecular target: T9, LbCas12a-T152R (Lachnospiraceae bacterium ND2006, T152R); assay: cleavage_in_vitro; PAM CTTC; NEB 2.1, 37C
LbCas12a-G532H [15] = molecular target: T5, LbCas12a-G532H; assay: cleavage_in_vitro; PAM CTTC; NEB 2.1, 37C
LbCas12a-D156Q [16] = molecular target: T2, LbCas12a-D156Q; assay: cleavage_in_vitro; PAM GTTC; NEB 2.1, 37C
LbCas12a-T152R [17] = molecular target: T9, LbCas12a-T152R; assay: cleavage_in_vitro; PAM GCCC; NEB 2.1, 37C
LbCas12a-K121R [18] = molecular target: T8, LbCas12a-K121R; assay: cleavage_in_vitro; PAM CCTG; NEB 2.1, 37C
LbCas12a-T152R [19] = molecular target: T9, LbCas12a-T152R; assay: cleavage_in_vitro; PAM CCTG; NEB 2.1, 37C
LbCas12a-K538W [20] = molecular target: T6, LbCas12a-K538W; assay: cleavage_in_vitro; PAM TTTC; NEB 2.1, 37C
LbCas12a-D535N [21] = molecular target: T7, LbCas12a-D535N; assay: cleavage_in_vitro; PAM TTTC; NEB 2.1, 37C

B1: PAMDA protospacer 1 crRNA ; protospacer 1 with ACCC PAM (ssRNA ; dsDNA)
RNA: AAUUUCUACUAAGUGUAGAUGGAAUCCCUUCUGCAGCACCUGG
DNA 1: ACCCGGAATCCCTTCTGCAGCACCTGG
DNA 2: CCAGGTGCTGCAGAAGGGATTCCGGGT
LbCas12a-K595Y [1]
  activity: 18.7 fold depletion

B2: PAMDA protospacer 1 crRNA ; protospacer 1 with TCCC PAM (ssRNA ; dsDNA)
RNA: AAUUUCUACUAAGUGUAGAUGGAAUCCCUUCUGCAGCACCUGG
DNA 1: TCCCGGAATCCCTTCTGCAGCACCTGG
DNA 2: CCAGGTGCTGCAGAAGGGATTCCGGGA
LbCas12a-D122H
  activity: 18.8 fold depletion

B3: PAMDA protospacer 1 crRNA ; protospacer 1 with CCTA PAM (ssRNA ; dsDNA)
RNA: AAUUUCUACUAAGUGUAGAUGGAAUCCCUUCUGCAGCACCUGG
DNA 1: CCTAGGAATCCCTTCTGCAGCACCTGG
DNA 2: CCAGGTGCTGCAGAAGGGATTCCTAGG
LbCas12a-D156Q [2]
  activity: 13.4 fold depletion

B4: PAMDA protospacer 1 crRNA ; protospacer 1 with TTCG PAM (ssRNA ; dsDNA)
RNA: AAUUUCUACUAAGUGUAGAUGGAAUCCCUUCUGCAGCACCUGG
DNA 1: TTCGGGAATCCCTTCTGCAGCACCTGG
DNA 2: CCAGGTGCTGCAGAAGGGATTCCCGAA
LbCas12a-K595Y [3]
  activity: 17.8 fold depletion

B5: PAMDA protospacer 1 crRNA ; protospacer 1 with CCCC PAM (ssRNA ; dsDNA)
RNA: AAUUUCUACUAAGUGUAGAUGGAAUCCCUUCUGCAGCACCUGG
DNA 1: CCCCGGAATCCCTTCTGCAGCACCTGG
DNA 2: CCAGGTGCTGCAGAAGGGATTCCGGGG
LbCas12a-E159K [4]
  activity: 12.3 fold depletion
LbCas12a-K595W [5]
  activity: 11.9 fold depletion

B6: PAMDA protospacer 1 crRNA ; protospacer 1 with TTCA PAM (ssRNA ; dsDNA)
RNA: AAUUUCUACUAAGUGUAGAUGGAAUCCCUUCUGCAGCACCUGG
DNA 1: TTCAGGAATCCCTTCTGCAGCACCTGG
DNA 2: CCAGGTGCTGCAGAAGGGATTCCTGAA
LbCas12a-G532H [6]
  activity: 16.2 fold depletion

B7: PAMDA protospacer 1 crRNA ; protospacer 1 with TATC PAM (ssRNA ; dsDNA)
RNA: AAUUUCUACUAAGUGUAGAUGGAAUCCCUUCUGCAGCACCUGG
DNA 1: TATCGGAATCCCTTCTGCAGCACCTGG
DNA 2: CCAGGTGCTGCAGAAGGGATTCCGATA
LbCas12a-K538W [7]
  activity: 9.66 fold depletion

B8: PAMDA protospacer 1 crRNA ; protospacer 1 with TATA PAM (ssRNA ; dsDNA)
RNA: AAUUUCUACUAAGUGUAGAUGGAAUCCCUUCUGCAGCACCUGG
DNA 1: TATAGGAATCCCTTCTGCAGCACCTGG
DNA 2: CCAGGTGCTGCAGAAGGGATTCCTATA
LbCas12a-K538W [8]
  activity: 10.4 fold depletion

B9: PAMDA protospacer 1 crRNA ; protospacer 1 with TTGC PAM (ssRNA ; dsDNA)
RNA: AAUUUCUACUAAGUGUAGAUGGAAUCCCUUCUGCAGCACCUGG
DNA 1: TTGCGGAATCCCTTCTGCAGCACCTGG
DNA 2: CCAGGTGCTGCAGAAGGGATTCCGCAA
LbCas12a-D535N [9]
  activity: 10.9 fold depletion

B10: PAMDA protospacer 1 crRNA ; protospacer 1 with TTCT PAM (ssRNA ; dsDNA)
RNA: AAUUUCUACUAAGUGUAGAUGGAAUCCCUUCUGCAGCACCUGG
DNA 1: TTCTGGAATCCCTTCTGCAGCACCTGG
DNA 2: CCAGGTGCTGCAGAAGGGATTCCAGAA
LbCas12a-E159K [10]
  activity: 12.7 fold depletion
LbCas12a-K121R [11]
  activity: 14.4 fold depletion

B11: PAMDA protospacer 1 crRNA ; protospacer 1 with GCGC PAM (ssRNA ; dsDNA)
RNA: AAUUUCUACUAAGUGUAGAUGGAAUCCCUUCUGCAGCACCUGG
DNA 1: GCGCGGAATCCCTTCTGCAGCACCTGG
DNA 2: CCAGGTGCTGCAGAAGGGATTCCGCGC
LbCas12a-K595Y [12]
  activity: 17.5 fold depletion

B12: PAMDA protospacer 1 crRNA ; protospacer 1 with ACGG PAM (ssRNA ; dsDNA)
RNA: AAUUUCUACUAAGUGUAGAUGGAAUCCCUUCUGCAGCACCUGG
DNA 1: ACGGGGAATCCCTTCTGCAGCACCTGG
DNA 2: CCAGGTGCTGCAGAAGGGATTCCCCGT
LbCas12a-K595W [13]
  activity: 11.5 fold depletion

B13: PAMDA protospacer 1 crRNA ; protospacer 1 with CTTC PAM (ssRNA ; dsDNA)
RNA: AAUUUCUACUAAGUGUAGAUGGAAUCCCUUCUGCAGCACCUGG
DNA 1: CTTCGGAATCCCTTCTGCAGCACCTGG
DNA 2: CCAGGTGCTGCAGAAGGGATTCCGAAG
LbCas12a-T152R [14]
  activity: 16.1 fold depletion
LbCas12a-G532H [15]
  activity: 15.1 fold depletion

B14: PAMDA protospacer 1 crRNA ; protospacer 1 with GTTC PAM (ssRNA ; dsDNA)
RNA: AAUUUCUACUAAGUGUAGAUGGAAUCCCUUCUGCAGCACCUGG
DNA 1: GTTCGGAATCCCTTCTGCAGCACCTGG
DNA 2: CCAGGTGCTGCAGAAGGGATTCCGAAC
LbCas12a-D156Q [16]
  activity: 15.6 fold depletion

B15: PAMDA protospacer 1 crRNA ; protospacer 1 with GCCC PAM (ssRNA ; dsDNA)
RNA: AAUUUCUACUAAGUGUAGAUGGAAUCCCUUCUGCAGCACCUGG
DNA 1: GCCCGGAATCCCTTCTGCAGCACCTGG
DNA 2: CCAGGTGCTGCAGAAGGGATTCCGGGC
LbCas12a-T152R [17]
  activity: 13 fold depletion

B16: PAMDA protospacer 1 crRNA ; protospacer 1 with CCTG PAM (ssRNA ; dsDNA)
RNA: AAUUUCUACUAAGUGUAGAUGGAAUCCCUUCUGCAGCACCUGG
DNA 1: CCTGGGAATCCCTTCTGCAGCACCTGG
DNA 2: CCAGGTGCTGCAGAAGGGATTCCCAGG
LbCas12a-K121R [18]
  activity: 13 fold depletion
LbCas12a-T152R [19]
  activity: 14.8 fold depletion

B17: PAMDA protospacer 1 crRNA ; protospacer 1 with TTTC PAM (ssRNA ; dsDNA)
RNA: AAUUUCUACUAAGUGUAGAUGGAAUCCCUUCUGCAGCACCUGG
DNA 1: TTTCGGAATCCCTTCTGCAGCACCTGG
DNA 2: CCAGGTGCTGCAGAAGGGATTCCGAAA
LbCas12a-K538W [20]
  activity: 11.7 fold depletion
LbCas12a-D535N [21]
  activity: 10.5 fold depletion
